Test results from patent US20180155451A1 (published 2018).

B1: GpH7-B3 variant H268_12R/GpL16-k0 (antibody, human IgG1, kappa)
heavy: not shown
light: DIVMTQSPLSLPVTPGEPASISCQASESLVHSNRNTYLHWYLQKPGQSPQLLIYKVSNRFSGVPDRFSGSGSGTDFTLKISRVEAEDVGVYYCSQNTHVPPTFGQGTKVEIERTVAAPSVFIFPPSDEQLKSGTASVVCLLNNFYPREAKVQWKVDNALQSGNSQESVTEQDSKDSTYSLSSTLTLSKADYEKHKVYACEVTHQGLSSPVTKSFNRGEC
notes: homodimerized; also called Ho Ab H268_12R
B2: GpH7-B3 variant H268_14T/GpL16-k0 (antibody, human IgG1, kappa)
heavy: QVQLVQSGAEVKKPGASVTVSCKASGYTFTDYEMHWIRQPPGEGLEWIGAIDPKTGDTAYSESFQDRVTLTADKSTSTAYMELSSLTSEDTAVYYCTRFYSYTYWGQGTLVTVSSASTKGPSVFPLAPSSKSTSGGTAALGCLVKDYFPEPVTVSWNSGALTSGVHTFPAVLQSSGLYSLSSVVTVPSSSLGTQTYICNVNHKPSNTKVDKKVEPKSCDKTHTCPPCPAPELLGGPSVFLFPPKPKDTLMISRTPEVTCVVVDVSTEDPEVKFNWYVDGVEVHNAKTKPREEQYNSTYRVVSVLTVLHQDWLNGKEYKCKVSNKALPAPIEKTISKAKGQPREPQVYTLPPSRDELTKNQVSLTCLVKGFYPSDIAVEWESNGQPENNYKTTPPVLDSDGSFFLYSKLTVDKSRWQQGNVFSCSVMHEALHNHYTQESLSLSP
light: B1 light
notes: homodimerized; also called Ho Ab H268_14T
B3: GpH7-B3 variant H268_20W/GpL16-k0 (antibody, human IgG1, kappa)
heavy: not shown
light: B1 light
notes: homodimerized; also called Ho Ab H268_20W
B4: GpH7-B3 variant I332_12R/GpL16-k0 (antibody, human IgG1, kappa)
heavy: not shown
light: B1 light
notes: homodimerized; also called Ho Ab I332_12R
B5: GpH7-B3 variant I336_01G/GpL16-k0 (antibody, human IgG1, kappa)
heavy: not shown
light: B1 light
notes: homodimerized; also called Ho Ab I336_01G
B6: GpH7-B3 variant I336_02A/GpL16-k0 (antibody, human IgG1, kappa)
heavy: not shown
light: B1 light
notes: homodimerized; also called Ho Ab I336_02A
B7: GpH7-B3 variant I336_03V/GpL16-k0 (antibody, human IgG1, kappa)
heavy: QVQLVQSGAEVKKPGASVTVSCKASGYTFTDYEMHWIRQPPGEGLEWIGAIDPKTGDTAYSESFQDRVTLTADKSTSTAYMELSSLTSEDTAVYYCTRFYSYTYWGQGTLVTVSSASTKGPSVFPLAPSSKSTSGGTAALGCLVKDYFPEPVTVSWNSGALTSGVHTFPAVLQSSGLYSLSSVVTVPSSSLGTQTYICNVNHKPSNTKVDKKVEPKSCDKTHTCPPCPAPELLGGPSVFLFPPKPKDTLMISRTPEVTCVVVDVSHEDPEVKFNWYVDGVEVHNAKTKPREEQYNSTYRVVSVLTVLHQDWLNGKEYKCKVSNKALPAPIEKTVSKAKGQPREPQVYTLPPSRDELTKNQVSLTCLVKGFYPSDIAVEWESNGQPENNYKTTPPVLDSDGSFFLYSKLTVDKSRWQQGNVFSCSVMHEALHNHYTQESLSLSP
light: B1 light
notes: homodimerized; also called Ho Ab I336_03V
B8: GpH7-B3 variant I336_04F/GpL16-k0 (antibody, human IgG1, kappa)
heavy: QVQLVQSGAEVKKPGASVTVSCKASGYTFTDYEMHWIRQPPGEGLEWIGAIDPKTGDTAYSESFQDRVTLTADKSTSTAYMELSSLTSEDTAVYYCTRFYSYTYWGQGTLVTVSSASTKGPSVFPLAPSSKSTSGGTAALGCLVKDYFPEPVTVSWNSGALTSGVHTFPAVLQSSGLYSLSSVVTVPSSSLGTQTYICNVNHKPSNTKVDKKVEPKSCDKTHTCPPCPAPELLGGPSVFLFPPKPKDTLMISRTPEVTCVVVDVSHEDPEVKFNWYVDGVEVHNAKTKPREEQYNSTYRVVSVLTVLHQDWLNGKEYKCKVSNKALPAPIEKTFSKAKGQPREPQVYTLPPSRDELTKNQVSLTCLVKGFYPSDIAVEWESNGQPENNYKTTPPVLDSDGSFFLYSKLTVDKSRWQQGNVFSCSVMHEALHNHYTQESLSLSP
light: B1 light
notes: homodimerized; also called Ho Ab I336_04F
B9: GpH7-B3 variant I336_06M/GpL16-k0 (antibody, human IgG1, kappa)
heavy: not shown
light: B1 light
notes: homodimerized; also called Ho Ab I336_06M
B10: GpH7-B3 variant I336_10E/GpL16-k0 (antibody, human IgG1, kappa)
heavy: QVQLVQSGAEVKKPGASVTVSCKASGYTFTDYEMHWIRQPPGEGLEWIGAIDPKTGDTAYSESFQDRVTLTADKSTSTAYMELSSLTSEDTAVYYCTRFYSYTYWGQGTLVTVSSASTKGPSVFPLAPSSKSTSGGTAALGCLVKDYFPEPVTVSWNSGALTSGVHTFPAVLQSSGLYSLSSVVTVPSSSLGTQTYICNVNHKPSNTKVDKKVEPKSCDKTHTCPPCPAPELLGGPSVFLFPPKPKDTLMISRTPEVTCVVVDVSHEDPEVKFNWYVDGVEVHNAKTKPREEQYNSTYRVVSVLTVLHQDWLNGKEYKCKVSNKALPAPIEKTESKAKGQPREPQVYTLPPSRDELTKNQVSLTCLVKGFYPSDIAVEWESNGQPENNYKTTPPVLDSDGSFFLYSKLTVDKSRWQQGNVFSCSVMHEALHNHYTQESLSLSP
light: B1 light
notes: homodimerized; also called Ho Ab I336_10E
B11: GpH7-B3 variant I336_18N/GpL16-k0 (antibody, human IgG1, kappa)
heavy: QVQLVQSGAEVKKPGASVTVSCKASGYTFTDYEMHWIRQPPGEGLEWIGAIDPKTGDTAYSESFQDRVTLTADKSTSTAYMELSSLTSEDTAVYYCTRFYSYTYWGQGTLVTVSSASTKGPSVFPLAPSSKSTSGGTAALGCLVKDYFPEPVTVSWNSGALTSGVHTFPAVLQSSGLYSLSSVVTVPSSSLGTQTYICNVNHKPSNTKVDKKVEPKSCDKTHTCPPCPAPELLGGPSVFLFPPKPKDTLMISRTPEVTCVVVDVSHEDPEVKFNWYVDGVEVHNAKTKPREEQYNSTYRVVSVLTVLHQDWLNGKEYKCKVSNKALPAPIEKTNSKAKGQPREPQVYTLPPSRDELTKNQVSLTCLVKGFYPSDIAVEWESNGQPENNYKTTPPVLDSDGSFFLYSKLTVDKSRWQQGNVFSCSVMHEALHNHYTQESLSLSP
light: B1 light
notes: homodimerized; also called Ho Ab I336_18N
B12: GpH7-B3 variant K326_12R/GpL16-k0 (antibody, human IgG1, kappa)
heavy: not shown
light: B1 light
notes: homodimerized; also called Ho Ab K326_12R
B13: GpH7-B3 variant K326_14T/GpL16-k0 (antibody, human IgG1, kappa)
heavy: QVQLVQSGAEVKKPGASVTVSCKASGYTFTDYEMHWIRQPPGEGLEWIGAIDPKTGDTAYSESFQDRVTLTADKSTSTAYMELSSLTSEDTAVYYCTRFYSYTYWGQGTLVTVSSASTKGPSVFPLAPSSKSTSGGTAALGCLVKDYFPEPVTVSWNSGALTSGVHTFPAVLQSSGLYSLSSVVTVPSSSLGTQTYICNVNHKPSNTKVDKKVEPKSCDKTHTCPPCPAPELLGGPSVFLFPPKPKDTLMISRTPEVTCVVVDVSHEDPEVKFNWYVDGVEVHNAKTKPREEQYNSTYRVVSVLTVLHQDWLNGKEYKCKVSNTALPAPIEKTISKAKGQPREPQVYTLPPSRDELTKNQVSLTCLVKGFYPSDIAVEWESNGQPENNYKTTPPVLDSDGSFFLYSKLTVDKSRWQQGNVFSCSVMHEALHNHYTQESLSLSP
light: B1 light
notes: homodimerized; also called Ho Ab K326_14T
B14: GpH7-B3 variant K326_15Y/GpL16-k0 (antibody, human IgG1, kappa)
heavy: not shown
light: B1 light
notes: homodimerized; also called Ho Ab K326_15Y
B15: GpH7-B3 variant K326_16H/GpL16-k0 (antibody, human IgG1, kappa)
heavy: not shown
light: B1 light
notes: homodimerized; also called Ho Ab K326_16H
B16: GpH7-B3 variant K326_18N/GpL16-k0 (antibody, human IgG1, kappa)
heavy: not shown
light: B1 light
notes: homodimerized; also called Ho Ab K326_18N
B17: GpH7-B3 variant K334_06M/GpL16-k0 (antibody, human IgG1, kappa)
heavy: not shown
light: B1 light
notes: homodimerized; also called Ho Ab K334_06M
B18: GpH7-B3 variant K334_10E/GpL16-k0 (antibody, human IgG1, kappa)
heavy: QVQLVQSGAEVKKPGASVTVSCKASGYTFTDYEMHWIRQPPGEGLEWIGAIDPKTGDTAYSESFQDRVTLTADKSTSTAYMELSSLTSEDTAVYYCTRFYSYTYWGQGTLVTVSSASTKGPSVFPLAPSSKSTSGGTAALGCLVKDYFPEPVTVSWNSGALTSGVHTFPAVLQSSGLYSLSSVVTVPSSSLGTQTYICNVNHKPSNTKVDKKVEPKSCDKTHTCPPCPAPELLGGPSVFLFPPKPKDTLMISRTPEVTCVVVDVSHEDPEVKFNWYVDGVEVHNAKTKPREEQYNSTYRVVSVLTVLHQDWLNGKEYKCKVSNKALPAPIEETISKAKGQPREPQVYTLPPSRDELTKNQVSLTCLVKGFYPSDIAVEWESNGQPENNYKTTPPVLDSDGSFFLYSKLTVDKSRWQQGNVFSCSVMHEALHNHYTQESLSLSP
light: B1 light
notes: homodimerized; also called Ho Ab K334_10E
B19: GpH7-B3 variant K334_12R/GpL16-k0 (antibody, human IgG1, kappa)
heavy: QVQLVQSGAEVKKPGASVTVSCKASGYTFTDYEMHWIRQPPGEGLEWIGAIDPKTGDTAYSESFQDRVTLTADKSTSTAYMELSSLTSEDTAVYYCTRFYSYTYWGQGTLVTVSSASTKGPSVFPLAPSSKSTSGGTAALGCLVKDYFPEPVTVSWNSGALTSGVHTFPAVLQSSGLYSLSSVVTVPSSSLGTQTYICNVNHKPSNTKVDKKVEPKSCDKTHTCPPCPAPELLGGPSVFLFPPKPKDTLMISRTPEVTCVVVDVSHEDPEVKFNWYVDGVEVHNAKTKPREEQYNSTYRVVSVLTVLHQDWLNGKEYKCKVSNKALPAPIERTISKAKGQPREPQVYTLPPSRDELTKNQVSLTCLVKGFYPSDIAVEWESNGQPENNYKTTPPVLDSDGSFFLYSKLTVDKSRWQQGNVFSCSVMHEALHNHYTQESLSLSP
light: B1 light
notes: homodimerized; also called Ho Ab K334_12R
B20: GpH7-B3 variant K334_20W/GpL16-k0 (antibody, human IgG1, kappa)
heavy: not shown
light: B1 light
notes: homodimerized; also called Ho Ab K334_20W
B21: GpH7-B3 variant L234_03V/GpL16-k0 (antibody, human IgG1, kappa)
heavy: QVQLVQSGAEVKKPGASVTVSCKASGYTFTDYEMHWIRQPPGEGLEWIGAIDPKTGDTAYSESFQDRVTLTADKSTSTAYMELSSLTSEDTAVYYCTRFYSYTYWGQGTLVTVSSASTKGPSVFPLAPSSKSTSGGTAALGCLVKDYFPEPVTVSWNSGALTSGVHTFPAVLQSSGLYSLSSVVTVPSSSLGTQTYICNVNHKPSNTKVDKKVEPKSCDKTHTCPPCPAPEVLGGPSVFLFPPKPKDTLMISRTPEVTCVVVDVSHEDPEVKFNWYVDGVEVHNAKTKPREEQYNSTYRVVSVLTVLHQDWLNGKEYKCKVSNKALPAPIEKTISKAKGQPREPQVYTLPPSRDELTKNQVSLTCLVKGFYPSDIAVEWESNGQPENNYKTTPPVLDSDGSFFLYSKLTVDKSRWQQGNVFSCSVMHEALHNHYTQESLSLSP
light: B1 light
notes: homodimerized; also called Ho Ab L234_03V
B22: GpH7-B3 variant L234_04F/GpL16-k0 (antibody, human IgG1, kappa)
heavy: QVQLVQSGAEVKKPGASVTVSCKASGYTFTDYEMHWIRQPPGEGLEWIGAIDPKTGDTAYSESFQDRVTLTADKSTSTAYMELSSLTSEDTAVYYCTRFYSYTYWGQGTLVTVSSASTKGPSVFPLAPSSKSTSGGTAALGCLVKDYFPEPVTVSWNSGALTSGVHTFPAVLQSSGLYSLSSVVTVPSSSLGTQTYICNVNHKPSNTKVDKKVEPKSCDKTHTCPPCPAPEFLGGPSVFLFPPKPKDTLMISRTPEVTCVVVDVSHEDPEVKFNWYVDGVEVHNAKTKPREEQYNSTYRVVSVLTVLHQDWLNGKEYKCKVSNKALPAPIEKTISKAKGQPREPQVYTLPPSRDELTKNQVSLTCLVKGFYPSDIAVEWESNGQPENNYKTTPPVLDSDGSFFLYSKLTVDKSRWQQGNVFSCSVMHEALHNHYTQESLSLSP
light: B1 light
notes: homodimerized; also called Ho Ab L234_04F
B23: GpH7-B3 variant L234_06M/GpL16-k0 (antibody, human IgG1, kappa)
heavy: not shown
light: B1 light
notes: homodimerized; also called Ho Ab L234_06M

Biological target: T1, FcγRIa (human, UniProt P12314 16-292)
T1 construct: extracellular domain; also called FcgRI; CD64
Experiment: SPR; vs GpH7-B3/GpL16-k0=100

T1 sequence (P12314 16-292): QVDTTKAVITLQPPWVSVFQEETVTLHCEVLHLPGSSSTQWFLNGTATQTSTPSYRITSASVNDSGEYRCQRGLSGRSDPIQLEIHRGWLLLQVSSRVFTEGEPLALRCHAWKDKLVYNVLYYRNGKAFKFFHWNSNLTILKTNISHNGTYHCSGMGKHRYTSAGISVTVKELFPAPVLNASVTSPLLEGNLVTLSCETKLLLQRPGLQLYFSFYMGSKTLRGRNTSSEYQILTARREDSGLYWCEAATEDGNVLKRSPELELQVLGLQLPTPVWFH

Q: For B1, which Ho/Con_1a is on record?
A: 105 % of control

Q: B2 was tested. Which Ho/Con_1a did it give?
A: 109 % of control

Q: How did the Ho/Con_1a turn out when B3 was run?
A: 106 % of control

Q: For B4, which Ho/Con_1a is on record?
A: 93.2 % of control

Q: How did the Ho/Con_1a turn out when B5 was run?
A: 104 % of control

Q: Which Ho/Con_1a does the source give for B6 here?
A: 103 % of control

Q: How did the Ho/Con_1a turn out when B7 was run?
A: 105 % of control

Q: With B8 as the binder, how does the Ho/Con_1a read?
A: 104 % of control

Q: With B9 as the binder, how does the Ho/Con_1a read?
A: 104 % of control

Q: How did the Ho/Con_1a turn out when B10 was run?
A: 107 % of control

Q: For B11, which Ho/Con_1a is on record?
A: 104 % of control

Q: Which Ho/Con_1a does the source give for B12 here?
A: 100 % of control

Q: B13 was tested. Which Ho/Con_1a did it give?
A: 103 % of control

Q: With B14 as the binder, how does the Ho/Con_1a read?
A: 101 % of control

Q: With B15 as the binder, how does the Ho/Con_1a read?
A: 101 % of control

Q: How did the Ho/Con_1a turn out when B16 was run?
A: 102 % of control

Q: How did the Ho/Con_1a turn out when B17 was run?
A: 104 % of control

Q: Which Ho/Con_1a does the source give for B18 here?
A: 107 % of control

Q: With B19 as the binder, how does the Ho/Con_1a read?
A: 102 % of control

Q: B20 was tested. Which Ho/Con_1a did it give?
A: 104 % of control

Q: B21 was tested. Which Ho/Con_1a did it give?
A: 98.2 % of control

Q: Which Ho/Con_1a does the source give for B22 here?
A: 93.5 % of control

Q: With B23 as the binder, how does the Ho/Con_1a read?
A: 96.5 % of control
